Consider one sequence from patent publication US20050064384A1, “Recruitment of mst1 or mst2 protein kinase to induce apoptosis in eukaryotic cells” (priority 2001, published 2005).

This assay has as its target FLAG-tagged wild type (wt) MST1 (mouse) (UniProt Q9JI11). The assay is described as follows: cell-based or functional assay.

Chain of FLAG-tagged wild type (wt) MST1 (mouse) (Q9JI11 other isoform, or with tags, fused parts or gaps limits assumed): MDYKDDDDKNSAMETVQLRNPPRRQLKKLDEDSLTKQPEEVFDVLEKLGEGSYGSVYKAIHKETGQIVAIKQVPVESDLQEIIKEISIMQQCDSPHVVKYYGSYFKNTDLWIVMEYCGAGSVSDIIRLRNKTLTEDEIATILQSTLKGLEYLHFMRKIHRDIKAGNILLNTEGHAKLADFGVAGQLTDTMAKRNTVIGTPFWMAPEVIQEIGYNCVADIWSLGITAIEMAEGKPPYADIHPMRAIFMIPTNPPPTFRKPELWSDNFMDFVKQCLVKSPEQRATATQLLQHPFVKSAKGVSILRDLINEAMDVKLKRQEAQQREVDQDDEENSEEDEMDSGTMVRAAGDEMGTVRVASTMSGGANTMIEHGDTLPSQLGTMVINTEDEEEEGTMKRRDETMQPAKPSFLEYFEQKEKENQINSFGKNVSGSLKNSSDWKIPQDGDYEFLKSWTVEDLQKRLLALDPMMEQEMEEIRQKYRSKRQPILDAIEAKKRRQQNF

“NORECAAX (NORE fused to the Ki-Ras4B membrane-association CAAX segment) (from UniProt Q5EBH1 1-413)” displayed a fraction of annexin V-stained NIH3T3 cells of 50%.
